Laboratory results published in patent US20260226133A1 (ANGELES THERAPEUTICS, published 2026).

Biological target: T1, MSLN (UniProt Q13421 37-598, limits assumed)
T1 construct: whole, on cells; also called Mesothelin
Experiment: Malibu-Glo assay; NLuc fusion supernatant on SKOV3 cells, control Jurkat cells

T1 sequence (Q13421 other isoform, or with tags, fused parts or gaps limits assumed): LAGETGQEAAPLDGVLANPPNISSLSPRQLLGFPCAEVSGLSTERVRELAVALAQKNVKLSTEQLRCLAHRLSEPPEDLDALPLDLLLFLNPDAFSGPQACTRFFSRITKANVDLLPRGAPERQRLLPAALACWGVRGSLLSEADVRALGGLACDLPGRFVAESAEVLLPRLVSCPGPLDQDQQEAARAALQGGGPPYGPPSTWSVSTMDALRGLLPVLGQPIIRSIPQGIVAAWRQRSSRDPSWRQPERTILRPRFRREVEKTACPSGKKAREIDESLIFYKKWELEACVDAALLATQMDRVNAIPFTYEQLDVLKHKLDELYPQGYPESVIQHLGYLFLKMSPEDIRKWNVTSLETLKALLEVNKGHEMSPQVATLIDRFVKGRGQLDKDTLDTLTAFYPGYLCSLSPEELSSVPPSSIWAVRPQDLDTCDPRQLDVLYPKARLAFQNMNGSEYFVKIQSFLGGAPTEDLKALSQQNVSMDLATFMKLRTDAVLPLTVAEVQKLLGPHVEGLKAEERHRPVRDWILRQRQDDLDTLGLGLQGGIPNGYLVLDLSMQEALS

B1: AT2-K65R vHH (MSLN), NLuc fusion (VHH)
VHH: QVQLVESGGGVVQPGGSLRLSCAASGLSFSTYTVAWFRQAPGKGLEGVAAIPYTSQHMVYTDSVRGRFTISRDNSKNTLYLQMNSLRAEDTAVYYCATDRRPGTSMLAINGYNRWGQGTTVTVSS
  Fold Change (Luc activity, target cell line over control cell line): 11.5 fold
